Experimental data reported in article PMC10902665, “Stable structures or PABP1 loading protects cellular and viral RNAs against ISG20-mediated decay”.

What was measured:
[1] = molecular target: PABP1 (poly(A)-binding protein 1) (UniProt P11940 1-636); test: EMSA; 5 mM Mg2+; PABP1 50-500 nM, RNA 10 nM; ISG20 EMSA: 50 mM Tris-HCl pH 7.4, 150 mM NaCl, 5 mM b-mercaptoethanol, 10 mM MnCl2, 0.1 ug/ul BSA, 5% glycerol, 30 C 30 min; PABP1 EMSA: 25 mM Tris-HCl pH 7.4, 5 mM MgCl2, 100 mM NaCl, 2.5 mM DTT, 0.2 ug/ul BSA, 10% glycerol, 37 C 15 min; details: protein: recombinant; tags: His; label: 5' 32P; single strand
[2] = molecular target: ISG20 WT (UniProt Q96AZ6 1-181); test: EMSA; 10 mM Mn2+; ISG20 50-1600 nM, RNA 10 nM; fitted curve, no Kd printed in the material; ISG20 EMSA: 50 mM Tris-HCl pH 7.4, 150 mM NaCl, 5 mM b-mercaptoethanol, 10 mM MnCl2, 0.1 ug/ul BSA, 5% glycerol, 30 C 30 min; PABP1 EMSA: 25 mM Tris-HCl pH 7.4, 5 mM MgCl2, 100 mM NaCl, 2.5 mM DTT, 0.2 ug/ul BSA, 10% glycerol, 37 C 15 min; details: protein: recombinant; tags: N-terminal 6xHis; label: 5' 32P; hairpin
Sequence of ISG20 WT (Q96AZ6 whole entry): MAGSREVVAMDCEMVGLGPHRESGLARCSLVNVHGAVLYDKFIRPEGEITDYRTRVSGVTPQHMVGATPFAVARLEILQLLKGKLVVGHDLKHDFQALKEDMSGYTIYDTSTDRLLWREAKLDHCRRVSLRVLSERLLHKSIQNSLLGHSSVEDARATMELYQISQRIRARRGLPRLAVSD

Sequence of PABP1 (poly(A)-binding protein 1) (P11940 whole entry): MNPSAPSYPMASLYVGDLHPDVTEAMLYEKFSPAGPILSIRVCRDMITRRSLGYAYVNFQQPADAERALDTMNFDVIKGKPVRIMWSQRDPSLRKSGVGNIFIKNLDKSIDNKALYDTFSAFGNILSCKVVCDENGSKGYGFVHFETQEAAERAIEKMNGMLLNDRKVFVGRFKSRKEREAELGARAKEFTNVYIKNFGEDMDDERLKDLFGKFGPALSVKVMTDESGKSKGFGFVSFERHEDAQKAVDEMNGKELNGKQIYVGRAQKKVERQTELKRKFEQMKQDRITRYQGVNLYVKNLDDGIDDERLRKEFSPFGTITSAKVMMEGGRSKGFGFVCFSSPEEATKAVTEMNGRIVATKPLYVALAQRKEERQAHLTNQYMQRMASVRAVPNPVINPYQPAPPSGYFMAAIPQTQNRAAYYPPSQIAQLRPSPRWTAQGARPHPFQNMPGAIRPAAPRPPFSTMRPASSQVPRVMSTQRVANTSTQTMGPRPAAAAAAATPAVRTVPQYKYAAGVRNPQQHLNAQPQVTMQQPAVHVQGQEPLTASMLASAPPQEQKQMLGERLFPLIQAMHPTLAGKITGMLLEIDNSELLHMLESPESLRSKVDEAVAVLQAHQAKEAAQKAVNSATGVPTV

Binder	binding result [1]	binding result [2]
ACACACACACACACACACACAAAAAAAAAAAAAAAAAAAA (ssRNA) [(AC)10A20, poly(A)-containing linear RNA]	binds	–
GGGGCCAGAUCUGAGCCUGGGAGCUCUCUGGCCC (structured_RNA) [TAR-9SL]	–	binds
